Key:
IL-17 (human IL-17) [1] = target: T1, IL-17 (human IL-17) (Homo sapiens, UniProt Q16552 Q16552:24-155); test: cell_activity; inhibition of IL-17 (10 ng/mL) + mouse TNF induced IL-6 in NIH3T3 cells, 37 C preincubation 30 min; settings: chain copies: 2 inferred (homodimer)
T1 sequence: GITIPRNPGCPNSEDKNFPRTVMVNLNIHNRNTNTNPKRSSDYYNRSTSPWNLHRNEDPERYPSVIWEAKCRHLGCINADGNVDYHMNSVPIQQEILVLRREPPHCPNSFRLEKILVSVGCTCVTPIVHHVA
Method: (§1) Human IL-17 (10 ng/mL) and aptamers diluted to various concentrations were pre-incubated at 37° C. for 30 min, and added to NIH3T3 cells (ATCC, CRL1658, 1.25×10⁵ cell/mL) together with mouse TNF (2 ng/mL). Then, after incubation for 24 hr, the culture supernatant was collected. After preservation at −70° C., the amount of produced IL-6 was measured by the ELISA method. The IL-17 inhibitory action of each aptamer was evaluated from the amount of produced IL-6.
A microtiter plate for ELISA was coated with rat anti-mouse IL-6 antibody (BD Biosciences, 2 μg/mL; 100 μL/well) diluted with PBS, and incubated at 4° C. overnight. The next day, the microtiter plate was washed 3 times with PBS/0.05% Tween 20, and blocked with PBS/1% BSA (200 μL/well) at room temperature for 2 hr. Then, the plate was washed 3 times with PBS/0.05% Tween 20. Recombinant mouse IL-6 (BD Biosciences; 100 μL/well) serially diluted with PBS/1% BSA/0.05% Tween 20 or culture supernatants (100 μL/well) were added to the plate. After incubation at room temperature for 2 hr, the plate was washed 3 times with PBS/0.05% Tween 20. Then, 100 μL/well of biotin conjugated rat anti-mouse IL-6 antibody (BD Biosciences) was added at final dilution of 1/500, and the mixture was reacted at room temperature for 1 hr. After washing 3 times with PBS/0.05% Tween 20, 100 μL/well of alkaline phosphatase conjugated streptavidin was added at final dilution of 1/1000. After 30 min at room temperature, the plate was again washed 4 times with PBS/0.05% Tween 20, and a substrate (1-Step PNPP; Thermo Fisher Scientific Inc; 100 μL/well) was added. After 15 min, aqueous sodium hydroxide solution (2N: 50 μL/well) was added to stop the reaction, and the plate was read on a microtiter reader (Bio-Rad) by using a 405 nm filter.

IL-17 (human IL-17) [2] = target: T1, IL-17 (human IL-17); test: cell_activity; nucleic acid alone; IL-6 release from NIH3T3 cells; settings: chain copies: 2 inferred (homodimer)
Method: Aptamers in which a brancher, a spacer, an ssH amino linker were added to the nucleic acid sequences of Example sequences 1, 2, 3 and 4, and 40 kDa 2 branched PEG was added (total PEG molecular weight: 80 kDa each) were synthesized (FIG. 1 structure 1). The IL-17 neutralization activity of each aptamer was measured along with the aptamer having the original nucleic acid sequence alone. The evaluation was based on the measurement of the amount of IL-6 released in the cultured cells by the stimulation of IL-17 and TNFα to the cells.
as §1
A microtiter plate for ELISA was coated with rat anti-mouse IL-6 antibody (BD Biosciences, 2 μg/mL; 100 μL/well) diluted with PBS, and incubated at 4° C. overnight. The next day, the microtiter plate was washed 3 times with PBS/0.05% Tween 20, and blocked with PBS/1% BSA (200 μL/well) at room temperature for 2 hr. Then, the plate was washed 3 times with PBS/0.05% Tween 20. […]

B1: Example sequence 1 (aptamer No. 8) PEG-linker-spacer-brancher (mixed)
mixed: GGGUAGCCGGAGGAGTCAGTAAUCGGUACCC
modifications: 2'-OMe at 1-4,7,8,10,13,14,23-26,28; 2'-F at 11,17,18,27; PS at g6; DNA at A5,G9,T16,T20,C29-C31; rest 2'-OH RNA; 3' idT (stated for in vivo tests); 5' symmetrical brancher with spacer + ssH amino linker + 2 x 40 kDa branched PEG (80 kDa total)
B1 was tested. Which IC50 (IL-17 (human IL-17) [1]) did it give?
The IC50 was 0.041 nM.

B2: Example sequence 4 (aptamer No. 93) PEG-linker-spacer-brancher (mixed)
mixed: GGGUAGCCGGAGGAGTCAGTAAUCGGUACCC
modifications: 2'-OMe at 1-4,7,8,10,13,14,23-26,28-31; 2'-F at 11,17,18,27; PS at g6; DNA at A5,G9,T16,T20; rest 2'-OH RNA; 3' idT (stated for in vivo tests); 5' symmetrical brancher with spacer + ssH amino linker + 2 x 40 kDa branched PEG (80 kDa total)
Which IC50 (IL-17 (human IL-17) [1]) does the source give for B2 here?
The IC50 was 0.06 nM.

B3: Example sequence 4 (aptamer No. 93) nucleic acid alone (mixed)
mixed: GGGUAGCCGGAGGAGTCAGTAAUCGGUACCC
modifications: 2'-OMe at 1-4,7,8,10,13,14,23-26,28-31; 2'-F at 11,17,18,27; PS at g6; DNA at A5,G9,T16,T20; rest 2'-OH RNA; no PEG
Which IC50 (IL-17 (human IL-17) [2]) does the source give for B3 here?
The IC50 was 0.123 nM.

B4: Example sequence 2 (aptamer No. 48) PEG-linker-spacer-brancher (mixed)
mixed: GGGUAGCCGGAGGAGTCAGTAAUCGGUACCC
modifications: 2'-OMe at 1-4,7,8,10,13,14,23-26,28; 2'-F at 17,27; DNA at A5,G9,T16,T20,C29-C31; rest 2'-OH RNA; 3' idT (stated for in vivo tests); 5' symmetrical brancher with spacer + ssH amino linker + 2 x 40 kDa branched PEG (80 kDa total)
For B4, which IC50 (IL-17 (human IL-17) [1]) is on record?
The IC50 was 0.18 nM.

B5: Example sequence 1 (aptamer No. 8) nucleic acid alone (mixed)
mixed: GGGUAGCCGGAGGAGTCAGTAAUCGGUACCC
modifications: 2'-OMe at 1-4,7,8,10,13,14,23-26,28; 2'-F at 11,17,18,27; PS at g6; DNA at A5,G9,T16,T20,C29-C31; rest 2'-OH RNA; no PEG
B5 was tested. Which IC50 (IL-17 (human IL-17) [2]) did it give?
The IC50 was 0.223 nM.
